# Source: patent publication US20240084003A1 (SIMCERE ZAIMING PHARMACEUTICAL, published 2024)
# T1: human CD22-ECD-His protein (human, UniProt P20273 20-687)
# T1 construct: Made in house in HEK293E; also called hCD22-ECD-His; recombinant human CD22-ECD His protein; not shown: His tag
# T1 sequence: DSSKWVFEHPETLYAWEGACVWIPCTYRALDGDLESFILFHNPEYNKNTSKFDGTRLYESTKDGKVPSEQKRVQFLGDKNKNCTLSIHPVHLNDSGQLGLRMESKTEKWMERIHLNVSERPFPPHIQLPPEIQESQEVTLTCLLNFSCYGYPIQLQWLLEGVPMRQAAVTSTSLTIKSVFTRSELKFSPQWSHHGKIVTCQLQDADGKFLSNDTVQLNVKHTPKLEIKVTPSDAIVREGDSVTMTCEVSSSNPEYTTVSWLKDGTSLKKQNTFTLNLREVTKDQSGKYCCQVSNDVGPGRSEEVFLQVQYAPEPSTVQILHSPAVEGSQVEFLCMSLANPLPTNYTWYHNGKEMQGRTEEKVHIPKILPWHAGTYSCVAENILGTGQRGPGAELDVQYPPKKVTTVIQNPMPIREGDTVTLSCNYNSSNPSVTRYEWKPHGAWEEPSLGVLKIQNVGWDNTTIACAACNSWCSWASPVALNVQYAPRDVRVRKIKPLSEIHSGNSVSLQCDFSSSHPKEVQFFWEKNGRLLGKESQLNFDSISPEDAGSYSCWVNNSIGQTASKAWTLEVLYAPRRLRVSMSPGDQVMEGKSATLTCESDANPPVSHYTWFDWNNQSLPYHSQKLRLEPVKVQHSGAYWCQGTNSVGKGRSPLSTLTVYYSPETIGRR
# T2: human CD22 domain1-4-His (human, UniProt P20273 20-425)
# T2 construct: also called hCD22 domain1-4-His; not shown: His tag
# T2 sequence: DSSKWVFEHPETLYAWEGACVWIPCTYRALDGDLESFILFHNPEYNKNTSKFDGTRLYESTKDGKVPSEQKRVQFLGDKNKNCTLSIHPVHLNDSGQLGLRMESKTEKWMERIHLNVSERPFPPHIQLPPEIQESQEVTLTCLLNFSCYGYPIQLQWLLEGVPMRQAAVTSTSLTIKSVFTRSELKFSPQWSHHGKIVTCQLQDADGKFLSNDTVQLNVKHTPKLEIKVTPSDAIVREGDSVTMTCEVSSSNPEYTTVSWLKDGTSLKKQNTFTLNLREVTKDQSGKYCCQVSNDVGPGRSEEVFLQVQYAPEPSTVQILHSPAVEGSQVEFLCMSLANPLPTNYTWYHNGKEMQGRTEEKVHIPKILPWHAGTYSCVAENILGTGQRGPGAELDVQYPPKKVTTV
# What was measured:
# [1] = target: T1, human CD22-ECD-His protein; test: ELISA, Ab 0.00001 nM
# Summary of the method: (§1)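 Coat: CD22-ECD-His 2 μg/mL PBS, 4 °C o/n. Block PBS/2% BSA 2 h RT. Ab 2 h 37 °C; HRP 2° 2 h 37 °C; TMB 30 min RT, 1.0 N HCl stop.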
# [2] = target: T1, human CD22-ECD-His protein; test: ELISA, Ab 0.0001 nM
# Summary of the method: as §1
# [3] = target: T1, human CD22-ECD-His protein; test: ELISA, Ab 0.001 nM
# Summary of the method: as §1
# [4] = target: T1, human CD22-ECD-His protein; test: ELISA, Ab 0.10 nM
# Summary of the method: as §1
# [5] = target: T1, human CD22-ECD-His protein; test: ELISA, Ab 0.01 nM
# Summary of the method: as §1
# [6] = target: T2, human CD22 domain1-4-His; test: ELISA, human CD22 domain1-4-His coated
Binder,OD450 [1],OD450 [2],OD450 [3],OD450 [4],OD450 [5],EC50 (read off the curve) [6],binding result [6]
"F1.245.2 (antibody, human IgG1, kappa, V domains shown, Human-murine chimeric IgG1, kappa) VH: EVQLQQSGAELVKPGASVKLSCTGSGFNIKDYYIHWVKQRTEQGLEWMGRIDPEDGETEYAPKFQDEATITSDTSSNTAYLQLSSLTYEDTAVYYCAREAAGYFYRGSSYGYFDVWGTGTTVTVSS VL: DFQMTQTTSFLSASLGDRVTISCSASQDISNYLNWYQQKPDGTVKLLIYYTSSLHSGVPSRFSGSGSGTDYSLTISNLEPEDIATYYCQQYSMLPYTFGGGTKLEMER",0.22 OD450,0.44 OD450,1.24 OD450,2.57 OD450,2.3 OD450,~0.02 nM,–
"F1.200.11 (antibody, human IgG1, kappa, V domains shown, Human-murine chimeric IgG1, kappa) VH: QNQLVQSGPELKKPGETVKISCKASGYTFTTAGMQWVQKMPGKGFKWIGWINTLSGEPKYAEDFKGRFAFSLETSATTAYLQISNLKNEDTATYFCARAYYSNLYWYFDVWGTGTTVTVSS VL: DIVMTQSQKFMSTTVGDRVTITCKASQNVVTAVAWYQQKPGQSPKVLIYSASNRYSGVPDRFTGSGSGTDFTLTISNMHSEDLANYFCHQYSSYPFTFGSGTKLEIKR",0.33 OD450,0.51 OD450,0.85 OD450,2.4 OD450,2 OD450,–,no binding (tested: 100 nM)
"F2.55.1 (antibody, human IgG1, lambda, V domains shown, Human-murine chimeric IgG1, lambda) VH: QVTLKESGPGILQPSQTLSLTCSFSGFSLSTFPLGVGWIRQPSGKGLEWLAHVWWNDDDYYNPALKSRLTISKDTSNTRVFLSVASVDTAETATYYCARLNWDRWYFDVWGTGTTVTVSS VL: QLVLTQSSSASFSLGASAKLTCTLSSQHSAYTVEWYQQQPLKPPKYVMELKKDGSHSTGDGIPDRFSGSSSGADRYLSISNIQPEDEAIYICGVGDTVKEQFVFGGGTKVTVLG",0.16 OD450,0.23 OD450,0.44 OD450,2.03 OD450,1.3 OD450,~0.1 nM,–
"F1.257.3 (antibody, human IgG1, kappa, V domains shown, Human-murine chimeric IgG1, kappa) VH: QVQLQQSGPELARPGASVKLSCKASGYTFTSYGISWVKQRTGQDLEWIGEIYPKLGTTYYNEKFKDKATLTTDRSSSTAYMALRSLTSEDSAVYFCACPHYYATRGGDYWGQGTTLTVSS VL: EIVLTQSPATLSVTPGDSVTFSCRASQSISNHLHWYQQKSHESPRLLIRYASQSISGIPSRFSGSGSGTDFTLSLSSVETEDFGVYFCQQSHSWPYTFGGGTKLEIAR",0.2 OD450,0.28 OD450,0.6 OD450,2.49 OD450,1.66 OD450,~0.3 nM,–
"F1.17.1 (antibody, human IgG1, kappa, V domains shown, Human-murine chimeric IgG1, kappa) VH: QVQLKESGPGLVAPSQSLSITCTVSGFSLSRYTVHWVRQPPGKGLEWLGMIWGGGSTDYNSALKSRLSISKDNSKSQVFLKMNSLQTDDTAMYYCARPHDFDAGGFAYWGQGTLVTVSA VL: QIVLTQSPAILSTSPGEKVTMTCSASSRVNYMYWYQQKPGSSPRLLIYDTSNLASGVPVRFSGSGSGTSYSLTISRMEAEDAATYYCQQWTSYPLTFGAGTKLELKR",0.11 OD450,0.2 OD450,0.75 OD450,2.41 OD450,1.85 OD450,~0.1 nM,–
"F1.280.1 (antibody, human IgG1, kappa, V domains shown, Human-murine chimeric IgG1, kappa) VH: QIQLVQSGPELKKPGETVKISCKASGYTFTTYGMSWVKQTPGKGLTWMGWINTDSGVPTYADDFKRRFAFSLEASATTAYLQINNLKNEDTATYFCARGGPDYWGQGTTLTVSS VL: DILLTQSPATLSVTPGETVSLSCRASQSIYKNLHWYHQKSHRSPRLLIKYASDSISGIPSRFTGSGSGTNFTLSINSVKPEDEGIYYCLQGYIVPLTFGAGTKLELKR",0.13 OD450,0.24 OD450,0.81 OD450,2.38 OD450,1.92 OD450,~0.05 nM,–
"F1.105.11 (antibody, human IgG1, kappa, V domains shown, Human-murine chimeric IgG1, kappa) VH: EVQLQQSGPVLVKPGASVKMSCKASGYTFSDYFMNWVKQSHGKSLEWIGIINSYSGGTSYNQKFKGKATLTVDKSSSTAYMELNSLTSEDSAVYYCARWMDYWGQGTSVTVSS VL: DVQITQSPSYLAASPGETITINCRTSESISKHLAWYQEKPGKTNKLLIYSGSTLQSGIPSRFSGSGSGTDFTLTISSLEPEDFAMYYCQQHNEYPWTFGGGTKLEIKR",0.08 OD450,0.14 OD450,0.53 OD450,2.52 OD450,1.93 OD450,–,no binding (tested: 100 nM)
"HA22-hIgG1 (antibody, V domains shown) VH: EVQLVESGGGLVKPGGSLKLSCAASGFAFSIYDMSWVRQTPEKCLEWVAYISSGGGTTYYPDTVKGRFTISRDNAKNTLYLQMSSLKSEDTAMYYCARHSGYGTHWGVLFAYWGQGTLVTVSA VL: DIQMTQTTSSLSASLGDRVTISCRASQDISNYLNWYQQKPDGTVKLLIYYTSILHSGVPSRFSGSGSGTDYSLTISNLEQEDFATYFCQQGNTLPWTFGCGTKLEIKR",0.19 OD450,0.33 OD450,0.89 OD450,2.57 OD450,2.12 OD450,~0.06 nM,–
"F1.120.15 (antibody, human IgG1, kappa, V domains shown, Human-murine chimeric IgG1, kappa) VH: QVQLQQSGPELVKPGASVKISCKASGNAFSNSWMNWVKQRPGKGLEWIGRVYSEDGDTQYNGKFRDKATLTADRSTSTAYMQLSSLTSEDSAVYFCARWLIYYGTYGAMDYWGQGTSVTVSS VL: DIQMTQTTSSLSASLGDRVTISCRASQDINNYLNWYHQKPDGTVKLLIYFTSRPYSGVPSRFSGSGSGTDYSLTISNLEQEDIATYFCQQGNTLPWTFGGGTKLEIKR",0.12 OD450,0.42 OD450,1.21 OD450,2.63 OD450,2.28 OD450,~0.2 nM,–
"F2.205.9 (antibody, human IgG1, lambda, V domains shown, Human-murine chimeric IgG1, lambda) VH: QVTLKESGPGILQPSQTLSLTCSFSGFSLSTSGMGVGWIRQPSGKGLEWLAHIWWDDDEYYNPALKSRLTISKDTSKNQVFLKIANVDTADTATYYCARISIPYGYYDWFFDVWGTGTTVTVSA VL: QAVVTQESALTTSPGETVTLTCRSSTGAVTTRNYANWVQEKPDHLFTGLIGGTNNRAPGVPARFSGSLIGDKAALTITGAQTEDEAIYFCALWYSNHFIFGSGTKVTVLG",0.19 OD450,0.24 OD450,0.4 OD450,2.1 OD450,1.48 OD450,~0.04 nM,–
"F1.216.2 (antibody, human IgG1, kappa, V domains shown, Human-murine chimeric IgG1, kappa) VH: QVQLQQSGPEVVRPGASVKISCKASGYAFSSSWMNWMKQRPGKALEWIGRIYPGDGDTNYSGEFKVKATLTADKSSSTAYMQLSSLTSEDSAVYFCAREGSYYSNPWYFDYWGQGTTLTVSS VL: DVLVTQTPLSLPVSLGDQASISCRSSQSIVQSNGDTYLEWYLQKPGQSPKLLIYKVSNRFSGVPDRFSGSGSGTDFTLKISRVEAEDLGVYYCFQGSHVPFTFGSGTKLEIKR",0.2 OD450,0.45 OD450,1.71 OD450,2.55 OD450,2.48 OD450,~0.02 nM,–
"F1.224.1 (antibody, human IgG1, kappa, V domains shown, Human-murine chimeric IgG1, kappa) VH: EVLLHQSGPELVKPGASVKISCKASGYTFTDFNMDWVRQRHGQSLEWIGDVNPNNGGTIYNQKFKGKATLTVDKSSSTVYMDLRSLTSDDTAVYYCVRLGTSDYGEAWFISWGQGTVVTVSA VL: DIVLTQSPASLAVSLGQRATISCRASQSVSTPRYSFMHWYQQKPGQPPKLLIKYASNLESGFPARFTGSGSGTDFTLNIHPVEEEDTAAYYCQQSWAIPWTFGGGTKLEIKR",0.17 OD450,0.34 OD450,1.08 OD450,2.37 OD450,2.21 OD450,~0.03 nM,–
